Two sequences from US20140072613A1, “Compositions and Methods for Treating Cutaneous Scarring” (priority 2012, published 2014) can be followed below.

Experiment in all cases: biochemical
Common to all, as to format: biochemical

In assay [1] the target is 266 human kinases (Homo sapiens, UniProt Q92630). As to conditions: DYRK2(h); 100 μM. The procedure, abridged: (§1)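 Radiometric filter-binding format: a positively charged substrate takes up radiolabelled phosphate from ATP unless the kinase is inhibited, then is captured on a negatively charged filter membrane. Counts from scintillation are expressed relative to a 100% activity control.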

For assay [2], the target named is 266 human kinases (Homo sapiens, UniProt P31749). To be noted: PKBα(h); 100 μM. Summed up:
as §1

In assay [3] the target is 266 human kinases (Homo sapiens, UniProt P68400). As to conditions: CK2(h); 100 μM. The procedure, abridged:
as §1

Assay [4] has as its target T1, 266 human kinases (Homo sapiens, UniProt Q8NG66).
T1 sequence (Q8NG66 1-645): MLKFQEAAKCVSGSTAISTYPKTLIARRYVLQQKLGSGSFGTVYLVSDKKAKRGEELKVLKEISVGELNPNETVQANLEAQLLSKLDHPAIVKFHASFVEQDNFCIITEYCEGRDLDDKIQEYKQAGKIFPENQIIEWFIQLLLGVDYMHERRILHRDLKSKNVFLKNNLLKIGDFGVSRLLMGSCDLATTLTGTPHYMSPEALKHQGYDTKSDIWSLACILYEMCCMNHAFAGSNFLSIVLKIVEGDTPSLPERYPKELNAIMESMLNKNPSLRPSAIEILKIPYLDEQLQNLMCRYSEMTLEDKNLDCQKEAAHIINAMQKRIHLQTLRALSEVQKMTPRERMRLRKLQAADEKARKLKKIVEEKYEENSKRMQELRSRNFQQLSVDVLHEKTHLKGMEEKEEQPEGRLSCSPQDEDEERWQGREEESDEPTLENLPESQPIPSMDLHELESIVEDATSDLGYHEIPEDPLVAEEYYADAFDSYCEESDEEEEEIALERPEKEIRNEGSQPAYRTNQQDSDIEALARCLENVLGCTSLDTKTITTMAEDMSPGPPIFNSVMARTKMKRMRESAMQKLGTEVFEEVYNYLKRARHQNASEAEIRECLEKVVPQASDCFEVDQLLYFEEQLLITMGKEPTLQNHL
As to conditions: NEK11(h); 100 μM. Summed up:
as §1

For assay [5], the target named is 266 human kinases (Homo sapiens, UniProt P35968). As to conditions: KDR(h); 100 μM. Summed up:
as §1

Assay [6] deals with 266 human kinases (Homo sapiens, UniProt Q9Y6E0). As to conditions: MST3(h); 100 μM. The procedure, abridged: as §1
Assay [7] concerns the target 266 human kinases (Homo sapiens, UniProt P51955). To be noted: NEK2(h); 100 μM. Summed up: as §1
In assay [8] the target is 266 human kinases (Homo sapiens, UniProt P31751). To be noted: PKBβ(h); 100 μM. Summed up:
as §1

Assay [9] has as its target T2, 266 human kinases (Homo sapiens, UniProt Q9UL54).
T2 sequence (Q9UL54 1-1235): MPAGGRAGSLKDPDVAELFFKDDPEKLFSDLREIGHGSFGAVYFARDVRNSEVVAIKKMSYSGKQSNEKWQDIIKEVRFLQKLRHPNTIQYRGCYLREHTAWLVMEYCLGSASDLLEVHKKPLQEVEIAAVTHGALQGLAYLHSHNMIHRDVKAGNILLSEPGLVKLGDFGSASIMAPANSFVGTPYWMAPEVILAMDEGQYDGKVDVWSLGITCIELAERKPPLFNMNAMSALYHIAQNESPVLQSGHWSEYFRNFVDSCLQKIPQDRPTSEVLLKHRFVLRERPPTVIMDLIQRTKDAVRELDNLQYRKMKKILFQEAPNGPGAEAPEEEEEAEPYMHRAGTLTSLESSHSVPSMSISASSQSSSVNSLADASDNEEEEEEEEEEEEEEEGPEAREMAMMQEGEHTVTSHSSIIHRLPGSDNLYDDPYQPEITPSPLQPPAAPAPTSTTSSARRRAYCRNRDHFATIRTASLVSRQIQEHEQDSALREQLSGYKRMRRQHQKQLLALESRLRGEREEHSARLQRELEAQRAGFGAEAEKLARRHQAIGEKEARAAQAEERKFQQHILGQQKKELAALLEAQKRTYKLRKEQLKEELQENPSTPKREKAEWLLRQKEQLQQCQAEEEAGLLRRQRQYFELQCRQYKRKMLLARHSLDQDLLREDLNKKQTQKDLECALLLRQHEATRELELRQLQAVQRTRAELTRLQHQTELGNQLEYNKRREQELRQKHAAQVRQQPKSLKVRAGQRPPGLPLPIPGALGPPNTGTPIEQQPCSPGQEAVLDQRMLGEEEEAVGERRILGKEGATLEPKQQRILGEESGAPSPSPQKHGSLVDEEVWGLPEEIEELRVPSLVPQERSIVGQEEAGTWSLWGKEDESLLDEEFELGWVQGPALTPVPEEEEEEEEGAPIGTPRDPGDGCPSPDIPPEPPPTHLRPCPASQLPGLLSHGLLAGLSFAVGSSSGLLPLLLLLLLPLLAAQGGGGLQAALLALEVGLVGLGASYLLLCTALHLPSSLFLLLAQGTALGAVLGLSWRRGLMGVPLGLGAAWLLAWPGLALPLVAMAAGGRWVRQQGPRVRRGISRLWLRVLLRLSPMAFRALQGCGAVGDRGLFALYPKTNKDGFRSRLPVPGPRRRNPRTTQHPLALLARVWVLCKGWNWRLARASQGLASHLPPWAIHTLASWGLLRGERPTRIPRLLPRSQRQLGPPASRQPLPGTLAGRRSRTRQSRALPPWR
As to conditions: TAO2(h); 100 μM. The procedure, abridged:
as §1

Chain of 266 human kinases (Homo sapiens, UniProt Q9Y6E0) (Q9Y6E0 whole entry): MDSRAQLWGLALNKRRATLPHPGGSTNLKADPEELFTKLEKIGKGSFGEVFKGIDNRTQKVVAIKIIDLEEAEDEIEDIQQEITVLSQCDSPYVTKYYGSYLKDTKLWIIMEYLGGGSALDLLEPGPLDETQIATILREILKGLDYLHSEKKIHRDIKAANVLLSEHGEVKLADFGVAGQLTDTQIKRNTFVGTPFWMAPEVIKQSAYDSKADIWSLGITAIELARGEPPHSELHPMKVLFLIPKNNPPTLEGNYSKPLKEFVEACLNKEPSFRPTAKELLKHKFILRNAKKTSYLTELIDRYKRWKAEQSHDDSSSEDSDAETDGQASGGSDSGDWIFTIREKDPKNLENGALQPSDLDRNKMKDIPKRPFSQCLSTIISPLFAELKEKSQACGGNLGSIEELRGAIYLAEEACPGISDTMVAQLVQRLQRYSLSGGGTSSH
Chain of 266 human kinases (Homo sapiens, UniProt P51955) (P51955 whole entry): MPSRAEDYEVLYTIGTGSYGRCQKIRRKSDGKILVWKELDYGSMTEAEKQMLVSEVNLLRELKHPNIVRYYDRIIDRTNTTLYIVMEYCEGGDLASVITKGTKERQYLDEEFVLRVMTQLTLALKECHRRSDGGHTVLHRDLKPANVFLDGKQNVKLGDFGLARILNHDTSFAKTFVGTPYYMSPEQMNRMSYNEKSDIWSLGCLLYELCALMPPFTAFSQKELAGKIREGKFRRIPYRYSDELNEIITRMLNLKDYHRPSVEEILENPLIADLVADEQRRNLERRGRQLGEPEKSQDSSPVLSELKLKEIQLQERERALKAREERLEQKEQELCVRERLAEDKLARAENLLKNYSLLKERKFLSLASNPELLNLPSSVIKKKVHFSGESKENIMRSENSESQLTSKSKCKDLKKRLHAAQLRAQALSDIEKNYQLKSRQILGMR
Chain of 266 human kinases (Homo sapiens, UniProt Q92630) (Q92630 whole entry): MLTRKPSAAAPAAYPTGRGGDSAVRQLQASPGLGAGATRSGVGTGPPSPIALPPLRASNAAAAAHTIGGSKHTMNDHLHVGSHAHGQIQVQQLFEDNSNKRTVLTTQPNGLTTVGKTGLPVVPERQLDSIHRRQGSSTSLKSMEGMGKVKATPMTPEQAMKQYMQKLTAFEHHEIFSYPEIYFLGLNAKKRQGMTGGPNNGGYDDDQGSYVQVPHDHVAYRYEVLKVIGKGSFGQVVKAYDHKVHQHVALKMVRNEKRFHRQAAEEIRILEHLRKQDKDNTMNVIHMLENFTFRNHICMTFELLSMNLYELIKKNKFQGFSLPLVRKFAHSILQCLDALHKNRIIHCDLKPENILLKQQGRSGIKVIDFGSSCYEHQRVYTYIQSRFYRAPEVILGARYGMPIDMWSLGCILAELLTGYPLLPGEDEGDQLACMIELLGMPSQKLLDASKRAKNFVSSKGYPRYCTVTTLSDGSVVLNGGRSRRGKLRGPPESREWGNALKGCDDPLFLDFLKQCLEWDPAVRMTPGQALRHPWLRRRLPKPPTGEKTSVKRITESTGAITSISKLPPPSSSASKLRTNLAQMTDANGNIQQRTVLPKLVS
Chain of 266 human kinases (Homo sapiens, UniProt P68400) (P68400 whole entry): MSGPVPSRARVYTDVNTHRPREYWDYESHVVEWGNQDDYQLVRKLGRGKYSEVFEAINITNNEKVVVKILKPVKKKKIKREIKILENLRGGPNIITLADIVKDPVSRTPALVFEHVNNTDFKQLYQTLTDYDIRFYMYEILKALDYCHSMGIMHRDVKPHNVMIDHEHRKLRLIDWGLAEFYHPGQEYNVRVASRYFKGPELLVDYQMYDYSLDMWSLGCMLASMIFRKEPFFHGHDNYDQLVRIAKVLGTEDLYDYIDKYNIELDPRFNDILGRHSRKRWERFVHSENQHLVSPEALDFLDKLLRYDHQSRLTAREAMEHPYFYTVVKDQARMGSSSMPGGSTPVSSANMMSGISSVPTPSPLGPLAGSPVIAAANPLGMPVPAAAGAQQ
Chain of 266 human kinases (Homo sapiens, UniProt P31751) (P31751 whole entry): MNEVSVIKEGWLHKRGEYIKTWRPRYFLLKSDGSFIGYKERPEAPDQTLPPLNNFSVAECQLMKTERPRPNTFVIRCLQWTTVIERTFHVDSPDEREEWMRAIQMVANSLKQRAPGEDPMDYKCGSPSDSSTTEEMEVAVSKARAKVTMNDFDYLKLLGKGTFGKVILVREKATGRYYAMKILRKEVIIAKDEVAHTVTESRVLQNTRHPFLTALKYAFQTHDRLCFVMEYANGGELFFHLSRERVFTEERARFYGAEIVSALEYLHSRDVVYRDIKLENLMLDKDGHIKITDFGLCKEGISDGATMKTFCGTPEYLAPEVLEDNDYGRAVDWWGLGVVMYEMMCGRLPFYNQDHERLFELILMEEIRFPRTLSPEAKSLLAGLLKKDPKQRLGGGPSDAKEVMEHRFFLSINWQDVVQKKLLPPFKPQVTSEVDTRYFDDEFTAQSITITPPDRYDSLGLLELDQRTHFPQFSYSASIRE
Chain of 266 human kinases (Homo sapiens, UniProt P35968) (P35968 20-1356): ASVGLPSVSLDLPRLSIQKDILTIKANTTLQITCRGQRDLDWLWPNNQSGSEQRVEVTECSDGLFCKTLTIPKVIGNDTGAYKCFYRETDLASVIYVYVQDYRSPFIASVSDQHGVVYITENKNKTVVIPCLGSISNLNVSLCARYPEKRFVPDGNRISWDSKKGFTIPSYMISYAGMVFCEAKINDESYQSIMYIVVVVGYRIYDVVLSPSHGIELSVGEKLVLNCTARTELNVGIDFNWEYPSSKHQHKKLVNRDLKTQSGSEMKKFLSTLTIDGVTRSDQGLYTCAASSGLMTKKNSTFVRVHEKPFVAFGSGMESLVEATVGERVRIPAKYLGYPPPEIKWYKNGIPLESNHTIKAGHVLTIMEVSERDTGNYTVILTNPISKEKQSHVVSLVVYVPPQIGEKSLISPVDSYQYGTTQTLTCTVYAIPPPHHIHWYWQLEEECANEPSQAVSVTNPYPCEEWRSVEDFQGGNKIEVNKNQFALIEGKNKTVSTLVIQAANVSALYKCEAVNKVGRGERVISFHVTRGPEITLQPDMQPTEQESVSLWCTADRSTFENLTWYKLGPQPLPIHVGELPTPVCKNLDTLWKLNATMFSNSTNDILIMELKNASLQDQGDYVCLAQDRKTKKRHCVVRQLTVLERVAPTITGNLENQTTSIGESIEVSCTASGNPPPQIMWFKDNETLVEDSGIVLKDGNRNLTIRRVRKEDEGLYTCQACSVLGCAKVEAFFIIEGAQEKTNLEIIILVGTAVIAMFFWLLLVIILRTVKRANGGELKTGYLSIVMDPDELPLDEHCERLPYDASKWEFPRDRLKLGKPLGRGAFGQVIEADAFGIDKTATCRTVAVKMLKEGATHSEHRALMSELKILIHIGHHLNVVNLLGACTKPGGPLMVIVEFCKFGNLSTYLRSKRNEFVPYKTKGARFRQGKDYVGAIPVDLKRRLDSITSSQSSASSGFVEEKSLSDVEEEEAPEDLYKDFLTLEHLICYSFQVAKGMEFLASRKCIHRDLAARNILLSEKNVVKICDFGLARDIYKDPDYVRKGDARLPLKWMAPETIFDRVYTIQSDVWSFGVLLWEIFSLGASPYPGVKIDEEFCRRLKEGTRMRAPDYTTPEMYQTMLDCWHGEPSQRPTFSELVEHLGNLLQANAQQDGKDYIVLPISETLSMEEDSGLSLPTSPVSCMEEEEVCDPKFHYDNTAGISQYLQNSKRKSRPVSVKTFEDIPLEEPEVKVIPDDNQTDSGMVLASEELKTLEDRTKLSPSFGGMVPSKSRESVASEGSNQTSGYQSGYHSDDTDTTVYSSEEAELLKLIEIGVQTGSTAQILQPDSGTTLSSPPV
Chain of 266 human kinases (Homo sapiens, UniProt P31749) (P31749 whole entry): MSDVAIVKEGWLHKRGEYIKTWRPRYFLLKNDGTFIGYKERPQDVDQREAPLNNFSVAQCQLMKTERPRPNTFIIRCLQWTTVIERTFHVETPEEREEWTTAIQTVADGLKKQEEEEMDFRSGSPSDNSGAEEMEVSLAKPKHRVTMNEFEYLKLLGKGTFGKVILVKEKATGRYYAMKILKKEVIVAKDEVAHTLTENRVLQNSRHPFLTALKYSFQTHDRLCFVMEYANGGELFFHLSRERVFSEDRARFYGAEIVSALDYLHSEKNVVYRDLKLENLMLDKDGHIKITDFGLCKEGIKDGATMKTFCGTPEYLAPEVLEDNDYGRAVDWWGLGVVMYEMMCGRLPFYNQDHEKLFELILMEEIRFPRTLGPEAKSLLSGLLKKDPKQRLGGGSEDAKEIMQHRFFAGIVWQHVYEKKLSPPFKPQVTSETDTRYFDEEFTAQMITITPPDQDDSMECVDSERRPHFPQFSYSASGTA

Consider “YARAAARQARAKALNRQLGVA (mammal) [MMI-0200]”, for which the “% activity” value in assay [1] is reported as 142%; in assay [2], 110%; in assay [3], 83%; in assay [4], 95%; in assay [5], 110%; in [6] it was 95%. For the same sequence, the results for the “% activity” value in assay [7], in assay [8] and in [9] were 97%, 250% and 93%, respectively.
On to “HRRIKAWLKKIKALARQLGVAA (mammal) [MMI-0500]”, for which the “% activity” value in assay [1] came to 127%; in [2], 30%; in assay [3] it was 93%; in assay [4] it was 2%; in assay [5], 15%; in [6], 4%. The entries for the “% activity” value in assay [7], in assay [8] and in [9] were 0%, 21% and 15%, respectively.
